Laboratory results taken from article PMC5498468, “Exposure to the Epstein–Barr Viral Antigen Latent Membrane Protein 1 Induces Myelin-Reactive Antibodies In Vivo” (Frontiers in Immunology, 2017).
No end group written: not given here.

Target: T1, Bovine myelin basic protein (MBP) (bovine, UniProt P02687 1-169)
T1 construct: Myelin basic protein, bovine
Assay: ELISA + other: WB (methods) or immunoprecipitation (results); synthetic peptides with C-terminal Lys-biotin tested for binding of MBP and LMP1; one grade a pair for the two assays
Details: both partners purified

T1 sequence (P02687 whole entry): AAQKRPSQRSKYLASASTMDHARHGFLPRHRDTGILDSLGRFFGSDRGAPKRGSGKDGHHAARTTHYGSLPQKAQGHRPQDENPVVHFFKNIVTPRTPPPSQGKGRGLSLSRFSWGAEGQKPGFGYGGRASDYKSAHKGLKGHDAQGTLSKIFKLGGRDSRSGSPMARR

B1: Synthesized biotinylated peptide P3, TYGGTFTDYLYNWVK (Bio) (peptide)
peptide: TYGGTFTDYLYNWVK
modifications: also: C-terminal Lys-biotin
notes: source: synthetic peptide (Shanghai Ruifu Chemical Co., Ltd.)
  binding result: binds
